According to PMC13213242, “A novel ψ–χ fusion protein for unravelling the contributions of χ to DNA replication and repair” (Nucleic Acids Research, 2026):
Like-named read-outs stand apart in the source and are kept apart here. Blank lines part the entries; values can stand above or below the molecule they belong to.

Legend:
[1] = target: beta clamp (Escherichia coli) (UniProt P0A988); details: cited from earlier work
[2] = target: beta clamp (Escherichia coli) (UniProt P0A988); details: cited from earlier work; remark: listed apart in the source
[3] = target: β-AF488_(2) (β sliding clamp R103C/I305C/C260S/C333S labelled with Alexa Fluor 488) (E. coli) (UniProt P0A988); test: other fluorescence titration; γ complex titrated into β-AF488_(2) (20 nM in the text, 10 nM in the legend) with 0.5 mM ATP; relative AF488 intensity at 520 nm, excitation 495 nm; reaction buffer 20 mM Tris–HCl pH 7.5, 50 mM NaCl, 8 mM MgCl2, 5 mM DTT, 0.5 mM EDTA, 40 μg/ml BSA, 4% glycerol; three independent experiments
[4] = target: T1, WT γ complex clamp loader (γ3δδ′ψχ) (E. coli, UniProt P06710-2 1-431; P28630 1-343; P28631 1-334; P28632 1-137; P28905 1-147); test: as above; details: both partners purified
T1 construct: DNA polymerase III subunit γ, the truncated form of DnaX made by a translational frameshift, E. coli; DNA polymerase III subunit δ, E. coli; DNA polymerase III subunit δ′, E. coli; DNA polymerase III subunit ψ, E. coli; DNA polymerase III subunit χ, E. coli; also called WT clamp loader; source: expressed and purified as described previously [12, 25–28]; copies: 3 + + + +

Molecule: gamma complex clamp loader (from UniProt P06710)
Kd [1]: 3.3 nM
Kd [2]: 3.2 nM

Kd [3]: 4.2 nM
Molecule: γ complex containing ψ–GS8–χ (γ3δδ′ψ–GS8–χ) (from UniProt P06710-2 1-431; P28630 1-343; P28631 1-334; P28632 1-137)

Kd [3]: 2.1 nM
Molecule: γ complex containing ψ–GS12–χ (γ3δδ′ψ–GS12–χ) (from UniProt P06710-2 1-431; P28630 1-343; P28631 1-334; P28632 1-137)

Kd [4]: 2 nM
B1: β-AF488_(2) (β sliding clamp R103C/I305C/C260S/C333S labelled with Alexa Fluor 488) (natural protein, E. coli, UniProt P0A988 1-366, looked up)
chain: MKFTVEREHLLKPLQQVSGPLGGRPTLPILGNLLLQVADGTLSLTGTDLEMEMVARVALVQPHEPGATTVPARKFFDICRGLPEGAEIAVQLEGERMLVRSGCSRFSLSTLPAADFPNLDDWQSEVEFTLPQATMKRLIEATQFSMAHQDVRYYLNGMLFETEGEELRTVATDGHRLAVCSMPIGQSLPSHSVIVPRKGVIELMRMLDGGDNPLRVQIGSNNIRAHVGDFIFTSKLVDGRFPDYRRVLPKNPDKHLEAGSDLLKQAFARAAILSNEKFRGVRLYVSENQLKITANNPEQEEAEECLDVTYSGAEMEIGFNVSYVLDVLNALKSENVRMMLTDSVSSVQIEDAASQSAAYVVMPMRL
modifications: Alexa Fluor 488 (maleimide) on the introduced surface Cys residues (R103C, I305C)
notes: DNA polymerase III β sliding clamp, E. coli; labelled at both sides of the dimer interface; also called β-AF88_(2); β-R103C/I305C/C260S/C333S; source: expressed and purified as described previously; labelled with AF488 maleimide, purified (BioGel P6-DG desalting, HiTrap Q)
